# Measured values published in patent US11059903B2, “Anti-PSMA antibodies, uses thereof and conjugates thereof” (Polytherics Limited, priority 2016, dated 2021).
# Square brackets hold non-standard residues; d marks the D form. Peptide text beside a SMILES is read from it. * marks the point of attachment. Dolaproine = CO[C@@H]([C@@H]1CCCN1)[C@@H](C)C(=O)O; Dil = CC[C@H](C)[C@H](NC)[C@@H](CC(=O)O)OC; X1 = C[C@@H](N*)[C@@H](O)c1ccccc1; NMeV = CN[C@H](C(=O)O)C(C)C
# Columns and labels:
# LNCaP cells = experiment: In vitro cell viability assay (CellTiter Glo) on LNCaP cells; format: cell-based; settings: anti-proliferative effect, 96 h
# Method: (§1) The in vitro efficacies of ADCs 1 to 7, prepared as described within Example 4, were determined by measuring their inhibitory effect upon cell growth of PSMA over-expressing cancer cell lines.
# (§2) Loss of tumour cell viability following treatment with cytotoxic drugs or ADCs in vitro can be measured by growing cell lines in the presence of increasing concentrations of drugs or ADCs and quantifying the loss of proliferation or metabolic activity using CellTiter Glo® Luminescence reagent (Promega Corp.). The protocol describes cell seeding, drug treatment and determination of the cell viability in reference to untreated cells based on ATP synthesis, which is directly related to the number of cells present in the well. […]
# (§3) The cell viability assay was carried out using the Cell-Titer Glo® Luminescence reagent, as described by the manufacturer's instructions, (Promega Corp. Technical Bulletin TB288; Lewis Phillips G. D, Cancer Res 2008; 68:9280-9290). Luminescence was recorded using a plate reader (e.g. Molecular Devices Spectramax M3 plate reader), and data subsequently analysed using a four parameter non-linear regression model. […]
# (§4) PSMA-positive LNCaP (clone FGC) and C4-2 cells were detached with TrypLE and resuspended in complete medium. Cells were counted using disposable Neubauer counting chambers and cell density adjusted to 10×10^4 cells/mL for LNCaP and 2×10^4 cells/mL for C4-2. […]
# C4-2 cells = experiment: In vitro cell viability assay (CellTiter Glo) on C4-2 cells; format: cell-based; settings: anti-proliferative effect, 96 h
# Method: as §1, §2, §3, §4
# [1] = Heat stress test, aggregation analysed by SEC; format: physicochemical
# Method: Antibody samples (0.5 mg/mL in PBS) were incubated at 75° C. for 30 min followed by incubation in an ice-bath for 5 min prior to being analysed for their extent of aggregation. Analysis of antibody solutions was carried out by Size Exclusion Chromatography (SEC) and by turbidity measurements.
# SEC was performed using a TOSOH Bioscience TSK gel Super SW 3000 column. UV absorbance at 280 nm was monitored during an isocratic elution with a 0.2 M Potassium phosphate buffer, pH 6.8 (0.2 M potassium chloride and 15% isopropanol). The elution times and number of peaks indicate whether the sample contains aggregated, degraded or native antibody. The % area under the curve (Abs280) was used to determine the quantity of each species present in the SEC analysis.
# [2] = post stress test: 0.5 mg/mL in PBS, 75° C. for 30 min, SEC % area
Compound,IC50 (LNCaP cells),IC50 (C4-2 cells),"Stability compared with AB-02 to AB-06 antibodies ([1]; heat stress test, in words)","Ab in aggregated form (%) [1, 2]","Ab in native conformation (%) [1, 2]"
CC[C@H](C)[C@@H]([C@@H](CC(=O)N1CCC[C@H]1[C@H](OC)[C@@H](C)C(=O)N[C@H](C)[C@@H](O)c1ccccc1)OC)N(C)C(=O)[C@@H](NC(=O)[C@@H](NC)C(C)C)C(C)C [MMAE] (H-[NMeV]V[Dil][Dolaproine]-X1),2.23 nM,0.63 nM,,,
"AB-10: Prior art de-immunised J591 anti-PSMA antibody, heavy chain SEQ ID No 3, light chain SEQ ID No 4 [reference compound]",,,less stable,99.6%,0.4%
